Reference: patent US10973880B2, “Compositions and methods for treating pulmonary hypertension” (Acceleron Pharma Inc., priority 2016, dated 2021)

Tests used:
GDF8 = target: T1, GDF8 (Homo sapiens, UniProt O14793); test: A-204 reporter gene assay, pGL3(CAGA)12 luciferase; assay type: cell-based; parameters: host or cells: exogenous factor added to A-204 cells (human rhabdomyosarcoma); details: Example 13
T1 sequence (O14793 267-375): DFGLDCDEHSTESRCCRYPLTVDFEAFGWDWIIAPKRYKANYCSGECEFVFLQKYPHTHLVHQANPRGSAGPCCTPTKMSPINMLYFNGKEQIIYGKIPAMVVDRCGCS
From the text: Day 1: Split A-204 cells into 48-well plate. […]
(§1) In addition, an A-204 Reporter Gene Assay was used to evaluate the effects of ALK4-Fc:ActRIIB-Fc heterodimer and ActRIIB-Fc:ActRIIB-Fc homodimer on signaling by activin A, activin B, GDF11, GDF8, BMP10, and BMP9. Cell line: Human Rhabdomyosarcoma (derived from muscle). Reporter vector: pGL3(CAGA)12 (as described in Dennler et al, 1998, EMBO 17: 3091-3100). The CAGA12 motif is present in TGFβ responsive genes (PAI-1 gene), so this vector is of general use for factors signaling through Smad2 and 3. An exemplary A-204 Reporter Gene Assay is outlined below. • Day 1: Split A-204 cells into 48-well plate. • Day 2: A-204 cells transfected with 10 ug pGL3(CAGA)12 or pGL3(CAGA)12(10 ug)+pRLCMV (1 ug) and Fugene. • Day 3: Add factors (diluted into medium+0.1% BSA). Inhibitors need to be pre-incubated with Factors for about one hr before adding to cells. About six hrs later, cells are rinsed with PBS and then lysed.
(§2) Following the above steps, a Luciferase assay was performed.

[1] = tested on: rat model of pulmonary arterial hypertension (PAH), monocrotaline (MCT) induced; test: monocrotaline rat model of pulmonary arterial hypertension; assay type: in vivo, Sprague Dawley rats
Method: The effects of an ActRIIA-mFc fusion protein (ActRIIA-mFc homodimer as described in Example 1), an ALK4-Fc-ActRIIB-Fc heterodimer (as described in Examples 12 and 13), and sildenafil (a phosphodiesterase-5 inhibitor approved for the treatment of PAH) were examined in a rat model of pulmonary arterial hypertension (PAH). In this model, Sprague Dawley rats received a […] injection of monocrotaline (MCT) to induce PAH 24 hours prior to start of therapy.
Rats were separated into different treatment groups (10 mice per group): 1) treatment with MCT (60 mg/kg administered i.p. as a single dose at day 1 of study) and Tris buffered saline (i.p. as 1 ml/kg, every three days) (vehicle treatment group), 2) treatment with an ActRIIA-mFc polypeptide (10 mg/kg administered i.p. every three days) and MCT (60 mg/kg administered i.p. as a single dose at day 1 of study), 3) treatment with an ALK4-Fc:ActRIIB-Fc heterodimer (10 mg/kg administered i.p. every three days) and MCT (60 mg/kg administered i.p. as a single dose at day 1 of study), 4) treatment with sildenafil (30 mg/kg administered orally twice daily) and MCT (60 mg/kg administered i.p. as a single dose at day 1 of study), and 5) control rats (Tris buffered saline administered i.p. as 1 ml/kg, every three days). Rats were treated for 28 days. Body weights were recorded prior to first dose on Day 1 and then weekly throughout the study.
On day 28, rats were anesthetized by an intraperitoneal injection of ketamine/xylazine (80/10 mg/kg). An incision was made in the neck, and a jugular vein was isolated and ligated anteriorly. A fluid-filled pressure catheter was introduced into the right jugular vein to measure pulmonary artery pressure (PAP). Another incision was made in the inguinal region, and femoral artery was isolated and ligated anteriorly. A Millar pressure catheter was introduced into a femoral artery to measure systolic arterial pressure, diastolic pressure, and heart rate. Mean arterial pressure and right PAP were monitored using the Notocord HEM (Croissy sur Seine, Frnace) v3.5 data capture system for approximately 5-10 minutes until stable measurements were obtained. During the measurements, rats were maintained at approximately 37° C. on a heating pad and body temperature was monitored throughout the procedure with a rectal temperature probe. At the conclusion of the procedure, rats were euthanized, and the hearts and lungs were removed. The entire heart was weighed. Next, the atria were removed and the left ventricle with septum (LV+S) was separated from the right ventricle (RV). The ventricles were weighed separately. Hypertrophy was assessed, in part, by calculating RV/LV+S. The lungs were also weighed.
Similar trends were observed on vessel muscularity based on histopathologic scoring. After staining tissue samples to detect αSMA/elastin, 100 pulmonary arterioles, between 10 μm and 50 μm in size, per animal were categorized as non-muscularized, partially muscularized, or completely muscularized. Pulmonary arterioles from vehicle treated rats were determined to be 62.3% completely muscularized, 36.4% partially muscularized, and 1.4% non-muscularized. […] Histopathological scoring of smooth muscle hypertrophy of pulmonary arterioles were also recorded as follows: 0 (normal), 1 (minimal), 2 (mild), 3 (moderate), or 4 (marked).

activin A = target: T2, activin A (Homo sapiens, UniProt P08476); test: A-204 reporter gene assay, pGL3(CAGA)12 luciferase; assay type: cell-based; details: Example 13
T2 sequence (P08476 311-426): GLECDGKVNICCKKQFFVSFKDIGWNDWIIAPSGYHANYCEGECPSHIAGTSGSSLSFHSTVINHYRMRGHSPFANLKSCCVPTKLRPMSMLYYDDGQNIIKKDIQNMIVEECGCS
From the text: An A-204 reporter gene assay was used to evaluate the effects of ActRIIB-Fc proteins and GDF traps on signaling by GDF-11 and activin A. Cell line: human rhabdomyosarcoma (derived from muscle). Reporter vector: pGL3(CAGA)12 (described in Dennler et al, 1998, EMBO 17: 3091-3100). The CAGA12 motif is present in TGF-beta responsive genes (e.g., PAI-1 gene), so this vector is of general use for factors signaling through SMAD2 and 3.
Day 1: Split A-204 cells into 48-well plate.
Day 2: A-204 cells transfected with 10 ug pGL3(CAGA)12 or pGL3(CAGA)12(10 ug)+pRLCMV (1 μg) and Fugene.
Day 3: Add factors (diluted into medium+0.1% BSA). Inhibitors need to be preincubated with factors for 1 hr before adding to cells. Six hrs later, cells were rinsed with PBS and lysed.
This is followed by a luciferase assay.
as §1, §2

B1: ALK4-Fc:ActRIIB-Fc heterodimer: heteromeric complex of extracellular domains of human ActRIIB and human ALK4, each separately fused to an Fc domain with a linker (protein)
chain 1: SGPRGVQALLCACTSCLQANYTCETDGACMVSIFNLDGMEHHVRTCIPKVELVPAGKPFYCLSSEDLRNTHCCYTDYCNRIDLRVPSGHLKEPEHPSMWGPVE
chain 2: GRGEAETRECIYYNANWELERTNQSGLERCEGEQDKRLHCYASWRNSSGTIELVKKGCWLDDFNCYDRQECVATEENPQVYFCCCEGNFCNERFTHLPEAGGPEVTYEPPPTAPT
modifications: left off: a dimerising Fc or GST; small tags and cut ends
notes: heteromeric complex of extracellular domains of human ActRIIB and human ALK4, each separately fused to an Fc domain with a linker
GDF8
  inhibition of GDF8 signaling: potent inhibitors
[1]; 28 days, compared to monocrotaline treated rats, proteins 10 mg/kg i.p. every three days, sildenafil 30 mg/kg orally twice daily
  improvement in body weight: +5.1%
[1]; day 28, RV/LV+S, compared to monocrotaline treated rats
  decrease of right heart hypertrophy: 39.6%
[1]; day 28, compared to monocrotaline treated rats
  decrease of lung weight: 19.0%
[1]; day 28, compared to monocrotaline treated rats, same dosing
  reduction of elevated PAP: 44.6%
[1]; monocrotaline-induced model
  effect in reducing vascular muscularization compared with sildenafil: greater effect
Activin A
  inhibition of activin A signaling: potent inhibitors
